Experimental data published in patent publication US20180142032A1 (Sanofi, published 2018).
Substitutions are numbered along the chain they refer to.

T1: human LAMP1 at the cell surface (human, UniProt P11279 29-417)
T1 construct: native on tumour cells (PDX, Colo205, SW480, LS174T) or from the cloned CDS NM_005561.3 in HEK293 and HCT116; signal peptide 1-28 left out; also called huLAMP1; full length human LAMP1
T1 sequence: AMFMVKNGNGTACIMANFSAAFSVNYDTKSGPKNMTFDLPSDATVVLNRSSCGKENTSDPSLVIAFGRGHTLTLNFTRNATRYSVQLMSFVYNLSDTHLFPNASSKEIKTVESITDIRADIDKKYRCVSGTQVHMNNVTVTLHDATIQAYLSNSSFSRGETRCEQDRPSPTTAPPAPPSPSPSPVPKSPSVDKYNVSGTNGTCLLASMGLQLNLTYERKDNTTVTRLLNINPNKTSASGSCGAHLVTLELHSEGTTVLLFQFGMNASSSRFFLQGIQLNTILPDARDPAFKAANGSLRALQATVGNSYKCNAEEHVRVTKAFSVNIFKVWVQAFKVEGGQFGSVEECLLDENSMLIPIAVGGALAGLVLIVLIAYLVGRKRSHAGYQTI

T2: LAMP1::histag (human, UniProt P11279 29-382)
T2 construct: extracellular domain without signal peptide, C-terminal 6 His tag, made in HEK293 cells; also called recombinant human LAMP1; human LAMP1 (29-382)
T2 sequence: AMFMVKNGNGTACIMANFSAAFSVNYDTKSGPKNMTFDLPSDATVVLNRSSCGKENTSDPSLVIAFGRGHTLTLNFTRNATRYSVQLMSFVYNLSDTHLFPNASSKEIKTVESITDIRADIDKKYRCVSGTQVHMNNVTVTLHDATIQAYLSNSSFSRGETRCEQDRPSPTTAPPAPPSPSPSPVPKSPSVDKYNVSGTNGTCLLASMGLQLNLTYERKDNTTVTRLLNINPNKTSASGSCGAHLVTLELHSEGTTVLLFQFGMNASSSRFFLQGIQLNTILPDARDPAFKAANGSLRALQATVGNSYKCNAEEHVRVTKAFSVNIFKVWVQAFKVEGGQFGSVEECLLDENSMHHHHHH

T3: mLAMP1_hseq6_ΔGYQTI (mouse; human, UniProt P11438 25-369)
T3 construct: on cells; numbering read as for pXL6041; also called pXL6047; not shown: murine transmembrane domain and cytoplasmic tail with GYQTI replaced by 5 Ala
T3 chain: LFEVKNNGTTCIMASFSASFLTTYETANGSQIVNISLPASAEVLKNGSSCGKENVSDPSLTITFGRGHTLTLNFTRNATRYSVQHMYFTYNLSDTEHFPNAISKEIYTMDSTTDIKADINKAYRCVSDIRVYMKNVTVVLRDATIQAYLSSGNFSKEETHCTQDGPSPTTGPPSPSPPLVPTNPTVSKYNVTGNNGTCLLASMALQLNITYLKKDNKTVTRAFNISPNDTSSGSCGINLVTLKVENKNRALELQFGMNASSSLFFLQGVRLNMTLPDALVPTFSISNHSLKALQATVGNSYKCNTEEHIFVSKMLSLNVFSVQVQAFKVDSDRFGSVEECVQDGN

T4: mLAMP1_hseq6-11_ΔGYQTI (mouse; human, UniProt P11438 25-369)
T4 construct: on cells; also called pXL6041; not shown: murine transmembrane domain and cytoplasmic tail with GYQTI replaced by 5 Ala
T4 chain: T3 chain with S151N, G152S, N153S, K156R, E157G

B1: MAb2 (antibody, mouse IgG1, kappa)
heavy: QVQLQQSAAELARPGASVKMSCKASGYTFTSYTMHWVKQRPGQGLEWIGYFNPSSGYPEYNQKFKDKTTLTADKSSNTAFIQLNSLTSEDSAVYYCSRGYYYGSRGYALDFWGQGASVTVSSAKTTPPSVYPLAPGSAAQTNSMVTLGCLVKGYFPEPVTVTWNSGSLSSGVHTFPAVLQSDLYTLSSSVTVPSSTWPSETVTCNVAHPASSTKVDKKIVPRDCGCKPCICTVPEVSSVFIFPPKPKDVLTITLTPKVTCVVVDISKDDPEVQFSWFVDDVEVHTAQTQPREEQFNSTFRSVSELPIMHQDWLNGKEFKCRVNSAAFPAPIEKTISKTKGRPKAPQVYTIPPPKEQMAKDKVSLTCMITDFFPEDITVEWQWNGQPAENYKNTQPIMDTDGSYFVYSKLNVQKSNWEAGNTFTCSVLHEGLHNHHTEKSLSHSPGK
light: NIVLTQSPVSLAVSLGQRATISCRASESVDINGNTFMHWYQQKPGQSPKLVIYAASNIESGVPARFSGSGSSTDFTFTIDPVEADDVATYYCQQNIEDPWTFGGGTKVEIKRADAAPTVSIFPPSSEQLTSGGASVVCFLNNFYPKDINVKWKIDGSERQNGVLNSWTDQDSKDSTYSMSSTLTLTKDEYERHNSYTCEATHKTSTSPIVKSFNRNEC
notes: murine monoclonal IgG, kappa, from hybridoma; also called murine MAb2
B2: MAb1 (antibody, mouse IgG2a, kappa)
heavy: QVQLQQSGAELVKPGASVKMSCKASGYIFTNYNIHWVKKSPGQGLEWIGAIYPGNGDAPYSQKFKDKATLTADKSSSTTYMQLSRLTSEDSAVYYCVRANWDVAFAYWGQGTLVSVSAAKTTAPSVYPLAPVCGDTTGSSVTLGCLVKGYFPEPVTLTWNSGSLSSGVHTFPAVLQSDLYTLSSSVTVTSSTWPSQSITCNVAHPASSTKVDKKIEPRGPTIKPCPPCKCPAPNLLGGPSVFIFPPKIKDVLMISLSPIVTCVVVDVSEDDPDVQISWFVNNVEVHTAQTQTHREDYNSTLRVVSALPIQHQDWMSGKEFKCKVNNKDLPAPIERTISKPKGSVRAPQVYVLPPPEEEMTKKQVTLTCMVTDFMPEDIYVEWTNNGKTELNYKNTEPVLDSDGSYFMYSKLRVEKKNWVERNSYSCSVVHEGLHNHHTTKSFSRTPGK
light: DIQMTQSPPSLSASLGGKVTITCKASQDIDRYMAWYQDKPGKGPRLLIHDTSTLQPGIPSRFSGSGSGRDYSFSISNLEPEDIATYYCLQYDNLWTFGGGTKLEIKRADAAPTVSIFPPSSEQLTSGGASVVCFLNNFYPKDINVKWKIDGSERQNGVLNSWTDQDSKDSTYSMSSTLTLTKDEYERHNSYTCEATHKTSTSPIVKSFNRNEC
notes: murine monoclonal IgG, kappa, from hybridoma; also called murine MAb1
B3: MAb3 (antibody, V domains shown)
VH: QIQLVQSGPELKKPGETVKISCKASGYIFTNYGMNWVKQAPGKGLKWMGWINTYTGESRYADDFKGRFALSLETSASTAYLQINNLENEDMATYFCAREDYYGNSPWFFDVWGAGTTVTVSS
VL: DIQMTQTTSSLSASLGDRVTISCNASQGINKYLNWYQQKPDGTVKLLIYYTSTLHSGVPSRFSGSGSGTDYSLTINNLEPEDIATYYCQQYTKLPFTFGSGTKLEIK
notes: murine monoclonal IgG, kappa, from hybridoma; also called murine MAb3

How the values were obtained:
[1] = molecular target: T1, human LAMP1 at the cell surface; experiment: flow cytometry, dissociated CR-IGR-034P colon PDX cells
Description: Advanced human primary colon tumor CR-IGR-034P was obtained from Patient-derived xenograft in mice. Tumor CR-IGR-034P was enzymatically dissociated using collagenase Type IV (Invitrogen; #17104-019) and deoxyribonuclease I (Invitrogen; #18047-019) for 1 h at 4° C. Cell viability was estimated by Viacount application using Guava® easyCyte™ 8HT Flow Cytometry System. […] 100 μL/well of goat anti-mouse IgG conjugated with Alexa647 (Invitrogen; # A2135) or goat anti-human IgG conjugated with Alexa488 (Invitrogen; # A11013) was added for 45 min at 4° C. and washed three times with PBS 1% BSA. The antibody binding was evaluated after centrifugation and resuspension of cells by adding 200 μl/well PBS 1% BSA and read using Guava® easyCyte™ 8HT Flow Cytometry System. EC50 values were estimated using BIOST@T-SPEED software.

LAMP1::histag = molecular target: T2, LAMP1::histag; experiment: ELISA on secreted LAMP1
mLAMP1_hseq6_ΔGYQTI = molecular target: T3, mLAMP1_hseq6_ΔGYQTI; experiment: flow cytometry, transfected 293-F cells, experiment 1
mLAMP1_hseq6-11_ΔGYQTI = molecular target: T4, mLAMP1_hseq6-11_ΔGYQTI; experiment: as above

Binder | EC50 [1] [nM] | EC50 (LAMP1::histag) [nM] | binding result (mLAMP1_hseq6_ΔGYQTI) | mean fluorescence (mLAMP1_hseq6_ΔGYQTI) | binding result (mLAMP1_hseq6-11_ΔGYQTI) | mean fluorescence (mLAMP1_hseq6-11_ΔGYQTI)
B1 | 14 | ~0.3 | no binding | 25 | no binding | 28
B2 | – | ~0.2 | no binding | 7 | – | 680
B3 | 6 | – | – | – | – | –
